Measurements reported in the supplement of paper PMC10567573.

B1: CD207 (parent)
chain: MTVEKEAPDAHFTVDKQNISLWPR

Variants of: B1
Experiment: protein stability index of a GFP-peptide fusion (GPS, HEK-293T) (PSI 1-6); higher = more stable
Conditions: c terminus: a fixed tail appended
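Further: lentivirally expressed fusions sorted by FACS into six bins by GFP to DsRed ratio, PSI derived from sequencing read proportions per bin multiplied by bin number.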

Variant	protein stability index
MTVEKWAPDAHFTVDKQNISLWPR	2.29
MTVEKYAPDAHFTVDKQNISLWPR	2.38
MTVEKECPDAHFTVDKQNISLWPR	3.31
MTVEKEDPDAHFTVDKQNISLWPR	3.79
MTVEKEEPDAHFTVDKQNISLWPR	4.23
MTVEKEFPDAHFTVDKQNISLWPR	2.77
MTVEKEHPDAHFTVDKQNISLWPR	3.32
MTVEKEIPDAHFTVDKQNISLWPR	2.67
MTVEKEKPDAHFTVDKQNISLWPR	3.11
MTVEKELPDAHFTVDKQNISLWPR	2.96
MTVEKEMPDAHFTVDKQNISLWPR	2.61
MTVEKENPDAHFTVDKQNISLWPR	4.01
MTVEKEPPDAHFTVDKQNISLWPR	3.54
MTVEKEQPDAHFTVDKQNISLWPR	3.97
MTVEKERPDAHFTVDKQNISLWPR	2.54
MTVEKESPDAHFTVDKQNISLWPR	3.71
MTVEKETPDAHFTVDKQNISLWPR	3.31
MTVEKEVPDAHFTVDKQNISLWPR	3.51
MTVEKEWPDAHFTVDKQNISLWPR	2.68
MTVEKEYPDAHFTVDKQNISLWPR	2.93
MTVEKEAADAHFTVDKQNISLWPR	3.52
MTVEKEACDAHFTVDKQNISLWPR	2.96
MTVEKEADDAHFTVDKQNISLWPR	3.67
MTVEKEAEDAHFTVDKQNISLWPR	4.39

Variant	protein stability index
MTVEKEAFDAHFTVDKQNISLWPR	1.98
MTVEKEAGDAHFTVDKQNISLWPR	3.02
MTVEKEAHDAHFTVDKQNISLWPR	4.79
MTVEKEAIDAHFTVDKQNISLWPR	3.22
MTVEKEAKDAHFTVDKQNISLWPR	3.54
MTVEKEALDAHFTVDKQNISLWPR	2.65
MTVEKEAMDAHFTVDKQNISLWPR	3.17
MTVEKEANDAHFTVDKQNISLWPR	3.48
MTVEKEAQDAHFTVDKQNISLWPR	3.24
MTVEKEARDAHFTVDKQNISLWPR	3.71
MTVEKEASDAHFTVDKQNISLWPR	3.65
MTVEKEATDAHFTVDKQNISLWPR	3.17
MTVEKEAVDAHFTVDKQNISLWPR	2.86
MTVEKEAWDAHFTVDKQNISLWPR	1.93
MTVEKEAYDAHFTVDKQNISLWPR	2.6
MTVEKEAPAAHFTVDKQNISLWPR	2.79
MTVEKEAPCAHFTVDKQNISLWPR	3.01
MTVEKEAPEAHFTVDKQNISLWPR	3.15
MTVEKEAPFAHFTVDKQNISLWPR	2.37
MTVEKEAPGAHFTVDKQNISLWPR	3.05
MTVEKEAPHAHFTVDKQNISLWPR	2.89
MTVEKEAPIAHFTVDKQNISLWPR	2.19
MTVEKEAPKAHFTVDKQNISLWPR	2.44
MTVEKEAPLAHFTVDKQNISLWPR	2.38

Variant	protein stability index
MTVEKEAPMAHFTVDKQNISLWPR	2.56
MTVEKEAPNAHFTVDKQNISLWPR	3.27
MTVEKEAPPAHFTVDKQNISLWPR	2.95
MTVEKEAPQAHFTVDKQNISLWPR	3.23
MTVEKEAPRAHFTVDKQNISLWPR	3.13
MTVEKEAPSAHFTVDKQNISLWPR	3.25
MTVEKEAPTAHFTVDKQNISLWPR	2.94
MTVEKEAPWAHFTVDKQNISLWPR	2.91
MTVEKEAPYAHFTVDKQNISLWPR	2.42
MTVEKEAPDCHFTVDKQNISLWPR	3.77
MTVEKEAPDDHFTVDKQNISLWPR	3.56
MTVEKEAPDEHFTVDKQNISLWPR	4.07
MTVEKEAPDFHFTVDKQNISLWPR	2.84
MTVEKEAPDGHFTVDKQNISLWPR	3.75
MTVEKEAPDHHFTVDKQNISLWPR	3.76
MTVEKEAPDIHFTVDKQNISLWPR	2.21
MTVEKEAPDKHFTVDKQNISLWPR	3.09
MTVEKEAPDLHFTVDKQNISLWPR	2.91
MTVEKEAPDMHFTVDKQNISLWPR	2.31
MTVEKEAPDNHFTVDKQNISLWPR	3.23
MTVEKEAPDPHFTVDKQNISLWPR	3.01
MTVEKEAPDQHFTVDKQNISLWPR	3.46
MTVEKEAPDRHFTVDKQNISLWPR	2.48
MTVEKEAPDSHFTVDKQNISLWPR	3.5

Variant	protein stability index
MTVEKEAPDTHFTVDKQNISLWPR	3.83
MTVEKEAPDVHFTVDKQNISLWPR	2.91
MTVEKEAPDWHFTVDKQNISLWPR	2.4
MTVEKEAPDYHFTVDKQNISLWPR	3.3
MTVEKEAPDAAFTVDKQNISLWPR	3.38
MTVEKEAPDACFTVDKQNISLWPR	3.01
MTVEKEAPDADFTVDKQNISLWPR	3.58
MTVEKEAPDAEFTVDKQNISLWPR	4.08
MTVEKEAPDAGFTVDKQNISLWPR	3.06
MTVEKEAPDAIFTVDKQNISLWPR	2.89
MTVEKEAPDAKFTVDKQNISLWPR	3.4
MTVEKEAPDALFTVDKQNISLWPR	3
MTVEKEAPDAMFTVDKQNISLWPR	2.88
MTVEKEAPDANFTVDKQNISLWPR	3.68
MTVEKEAPDAPFTVDKQNISLWPR	3.55
MTVEKEAPDAQFTVDKQNISLWPR	2.95
MTVEKEAPDARFTVDKQNISLWPR	2.79
MTVEKEAPDASFTVDKQNISLWPR	3.58
MTVEKEAPDATFTVDKQNISLWPR	3.8
MTVEKEAPDAVFTVDKQNISLWPR	3.55
MTVEKEAPDAWFTVDKQNISLWPR	1.97
MTVEKEAPDAYFTVDKQNISLWPR	2.28
MTVEKEAPDAHATVDKQNISLWPR	3.78
MTVEKEAPDAHCTVDKQNISLWPR	3.72

Variant	protein stability index
MTVEKEAPDAHDTVDKQNISLWPR	4.92
MTVEKEAPDAHETVDKQNISLWPR	4.38
MTVEKEAPDAHGTVDKQNISLWPR	4.03
MTVEKEAPDAHHTVDKQNISLWPR	4.02
MTVEKEAPDAHITVDKQNISLWPR	3.96
MTVEKEAPDAHKTVDKQNISLWPR	4.05
MTVEKEAPDAHLTVDKQNISLWPR	3.72
MTVEKEAPDAHMTVDKQNISLWPR	4.14
MTVEKEAPDAHNTVDKQNISLWPR	3.13
MTVEKEAPDAHPTVDKQNISLWPR	4.66
MTVEKEAPDAHQTVDKQNISLWPR	4.5
MTVEKEAPDAHRTVDKQNISLWPR	4.04
MTVEKEAPDAHSTVDKQNISLWPR	4.1
MTVEKEAPDAHTTVDKQNISLWPR	4.09
MTVEKEAPDAHVTVDKQNISLWPR	3.74
MTVEKEAPDAHWTVDKQNISLWPR	3.35
MTVEKEAPDAHYTVDKQNISLWPR	3.16
MTVEKEAPDAHFAVDKQNISLWPR	3.53
MTVEKEAPDAHFCVDKQNISLWPR	3.2
MTVEKEAPDAHFDVDKQNISLWPR	3.96
MTVEKEAPDAHFFVDKQNISLWPR	3.13
MTVEKEAPDAHFGVDKQNISLWPR	3.04
MTVEKEAPDAHFHVDKQNISLWPR	3.03
MTVEKEAPDAHFIVDKQNISLWPR	3.49

Variant	protein stability index
MTVEKEAPDAHFKVDKQNISLWPR	3.61
MTVEKEAPDAHFLVDKQNISLWPR	4.19
MTVEKEAPDAHFMVDKQNISLWPR	3.12
MTVEKEAPDAHFNVDKQNISLWPR	3.63
MTVEKEAPDAHFPVDKQNISLWPR	3.19
MTVEKEAPDAHFQVDKQNISLWPR	3.43
MTVEKEAPDAHFRVDKQNISLWPR	2.66
MTVEKEAPDAHFSVDKQNISLWPR	3.8
MTVEKEAPDAHFVVDKQNISLWPR	3.42
MTVEKEAPDAHFWVDKQNISLWPR	2.54
MTVEKEAPDAHFYVDKQNISLWPR	3.59
MTVEKEAPDAHFTADKQNISLWPR	3.45
MTVEKEAPDAHFTCDKQNISLWPR	3.27
MTVEKEAPDAHFTDDKQNISLWPR	4.11
MTVEKEAPDAHFTEDKQNISLWPR	3.79
MTVEKEAPDAHFTFDKQNISLWPR	2.42
MTVEKEAPDAHFTGDKQNISLWPR	2.35
MTVEKEAPDAHFTHDKQNISLWPR	3.13
MTVEKEAPDAHFTIDKQNISLWPR	3.45
MTVEKEAPDAHFTKDKQNISLWPR	3.41
MTVEKEAPDAHFTLDKQNISLWPR	2.93
MTVEKEAPDAHFTMDKQNISLWPR	3.18
MTVEKEAPDAHFTNDKQNISLWPR	3.36
MTVEKEAPDAHFTPDKQNISLWPR	3.79

Variant	protein stability index
MTVEKEAPDAHFTQDKQNISLWPR	3.85
MTVEKEAPDAHFTRDKQNISLWPR	3.05
MTVEKEAPDAHFTSDKQNISLWPR	3.81
MTVEKEAPDAHFTTDKQNISLWPR	3.82
MTVEKEAPDAHFTWDKQNISLWPR	2.65
MTVEKEAPDAHFTYDKQNISLWPR	2.48
MTVEKEAPDAHFTVAKQNISLWPR	3.35
MTVEKEAPDAHFTVCKQNISLWPR	3.35
MTVEKEAPDAHFTVEKQNISLWPR	3.51
MTVEKEAPDAHFTVFKQNISLWPR	2.06
MTVEKEAPDAHFTVGKQNISLWPR	2.92
MTVEKEAPDAHFTVHKQNISLWPR	2.48
MTVEKEAPDAHFTVIKQNISLWPR	2.31
MTVEKEAPDAHFTVKKQNISLWPR	2.81
MTVEKEAPDAHFTVMKQNISLWPR	2.67
MTVEKEAPDAHFTVNKQNISLWPR	2.54
MTVEKEAPDAHFTVPKQNISLWPR	2.74
MTVEKEAPDAHFTVQKQNISLWPR	3.17
MTVEKEAPDAHFTVRKQNISLWPR	3.06
MTVEKEAPDAHFTVSKQNISLWPR	3.61
MTVEKEAPDAHFTVTKQNISLWPR	2.74
MTVEKEAPDAHFTVYKQNISLWPR	1.98
MTVEKEAPDAHFTVDAQNISLWPR	3.52
MTVEKEAPDAHFTVDCQNISLWPR	3.76

Variant	protein stability index
MTVEKEAPDAHFTVDDQNISLWPR	3.35
MTVEKEAPDAHFTVDEQNISLWPR	4.13
MTVEKEAPDAHFTVDFQNISLWPR	2.95
MTVEKEAPDAHFTVDGQNISLWPR	3.8
MTVEKEAPDAHFTVDHQNISLWPR	3.53
MTVEKEAPDAHFTVDIQNISLWPR	2.39
MTVEKEAPDAHFTVDLQNISLWPR	2.62
MTVEKEAPDAHFTVDMQNISLWPR	2.83
MTVEKEAPDAHFTVDNQNISLWPR	3.49
MTVEKEAPDAHFTVDPQNISLWPR	3.26
MTVEKEAPDAHFTVDQQNISLWPR	3.01
MTVEKEAPDAHFTVDRQNISLWPR	3.26
MTVEKEAPDAHFTVDSQNISLWPR	3.79
MTVEKEAPDAHFTVDTQNISLWPR	3.18
MTVEKEAPDAHFTVDVQNISLWPR	2.93
MTVEKEAPDAHFTVDWQNISLWPR	2
MTVEKEAPDAHFTVDYQNISLWPR	2.83
MTVEKEAPDAHFTVDKANISLWPR	3.66
MTVEKEAPDAHFTVDKCNISLWPR	2.8
MTVEKEAPDAHFTVDKDNISLWPR	3.73
